From paper PMC3965363 (Neuropharmacology, 2014)
Where two headings read alike, the source gives them in different places.

Assays:
[1] = system: brain of C57BL/6 mice; assay: Brain clearance index; format: in vivo, mouse
[2] = Integrity of 125I-Aβ40 in media without cells; format: physicochemical; conditions: 0.1 nM 125I-Aβ40 in media without cells
[3] = system: bEnd3 cells
[4] = system: hCMEC/D3 cells
[5] = system: bEnd3 cells; remark: listed apart in the source
[6] = system: hCMEC/D3 cells; remark: listed apart in the source
[7] = system: bEnd3 cells; remark: listed apart in the source
[8] = system: bEnd3 cells; assay: Aβ40 degradation in bEnd3 cells with IDE or neprilysin inhibitor; format: cell-based, mouse; conditions: bEnd3, thiorphan 2 mM
[9] = system: hCMEC/D3 cells; assay: Aβ40 degradation in hCMEC/D3 cells with IDE or neprilysin inhibitor; format: cell-based, human; conditions: hCMEC/D3, thiorphan 2 mM
[10] = system: human brain; conditions: ref Mawuenyega et al., 2010, cited from earlier work
[11] = system: mouse brain; conditions: ref Barten et al., 2005, Cirrito et al., 2003, cited from earlier work
[12] = system: brain; conditions: ref Shibata et al., 2000; cited from earlier work
[13] = system: BBB; conditions: ref Ito et al., 2006; cited from earlier work

Molecule: 125I-Aβ40: radioiodinated amyloid-β 40 peptide tracer (PerkinElmer)
- BCITotal(%), total brain clearance (BBB efflux + degradation) ([1]; mouse): 58.7±3.9%
- BCIBBB(%), clearance across BBB ([1]; mouse, in vivo): 35.6±3.3%
- BCIDegradation(%), clearance by brain degradation ([1]; mouse, in vivo): 23.1±2.3%
- clearance across BBB as share of BCITotal(%) ([1]; mouse, in vivo): 62%
- dimer or higher oligomer formation ([2]; 12 h, 16% bis-tris gel electrophoresis): absence of dimers or higher oligomer formation
- dissociation of 125I from Aβ40 ([2]; investigated time points): insignificant dissociation
- effect of RAGE inhibition on 125I-Aβ40 degradation ([3]; bEnd3, RAGE-IgG 5 µg/ml, 0.1 nM, 15 min, P>0.05): not altered
- effect of RAGE inhibition on 125I-Aβ40 degradation ([4]; hCMEC/D3, RAGE-IgG 5 µg/ml, 0.1 nM, 12 h, P>0.05): not altered
- effect of inhibition of RAGE, P-gp, or LRP1 on degradation during transport ([5]; bEnd3, either direction, RAGE-IgG 5 µg/ml, valspodar 5 µM or RAP 1 µM, 30 min): did not affect
- effect of inhibition of P-gp on A→B transport ([5]; bEnd3, valspodar 5 µM pre- and co-incubated, 0.1 nM, 30 min): no alteration
- effect of inhibition of RAGE, P-gp, or LRP1 on degradation during transport ([6]; hCMEC/D3, either direction, RAGE-IgG 5 µg/ml, valspodar 5 µM or RAP 1 µM, 12 h): did not affect
- Intrinsic uptake (Vmax/Km) [7]: 2848 nL/min

Molecule: O=C(O)CNC(=O)C(CS)Cc1ccccc1 (centres unmarked) [thiorphan]
- effect of neprilysin inhibition on Aβ40 degradation [8]: did not show any significant effect
- effect of neprilysin inhibition on Aβ40 degradation [9]: did not show any significant effect

Molecule: Aβ40: amyloid-β peptide Aβ40, by-product of proteolytic degradation of amyloid precursor protein
- effect of P-gp inhibition on brain degradation ([1]; valspodar 40 µM intracerebral, 30 min, NS in Figure 1C): without altering
- Aβ40 cleared from the brain per hour ([10]; cognitively normal individuals): about 7%
- corresponding half-life of Aβ40 in brain ([10]; cognitively normal individuals): ~ 10 h
- Aβ40 cleared from the brain per hour ([10]; patients with AD): 5.2%
- corresponding half-life of Aβ40 in brain ([10]; patients with AD): ~ 13 h
- half-life of human Aβ40 in mouse brain ([11]; PDAPP mice): 2 h
- half-life of human Aβ40 in mouse brain ([11]; Tg2576 mice): 0.63 h
- contribution of CSF flow to overall brain Aβ40 clearance [12]: 10–15%

Molecule: Aβ42: amyloid-β peptide Aβ42, prone to rapid aggregation
- clearance across the BBB compared to Aβ40 [13]: slower

Molecule: valspodar
- change in 125I-Aβ40 accumulation (P-gp inhibition) ([3]; bEnd3, valspodar 5 µM pre- and co-incubated, 0.1 nM 125I-Aβ40, 15 min, P>0.05): did not cause any significant change
- effect of P-gp inhibition on 125I-Aβ40 degradation ([3]; bEnd3, valspodar 5 µM, 0.1 nM 125I-Aβ40, 15 min, P>0.05): no effect
- effect of P-gp inhibition on 125I-Aβ40 degradation ([4]; hCMEC/D3, valspodar 5 µM, 0.1 nM 125I-Aβ40, 12 h, P>0.05): no effect

B1: RAP: an LRP1 inhibitor (receptor-associated protein; Oxford Biomedical Research) (protein, UniProt P30533 35-357, looked up)
Alpha-2-macroglobulin …: YSREKNQPKPSPKRESGEEFRMEKLNQLWEKAQRLHLPPVRLAELHADLKIQERDELAWKKLKLDGLDEDGEKEARLIRNLNVILAKYGLDGKKDARQVTSNSLSGTQEDGLDDPRLEKLWHKAKTSGKFSGEELDKLWREFLHHKEKVHEYNVLLETLSRTEEIHENVISPSDLSDIKGSVLHSRHTELKEKLRSINQGLDRLRRVSHQGYSTEAEFEEPRVIDLWDLAQSANLTDKELEAFREELKHFEAKIEKHNHYQKQLEIAHEKLRHAESVGDGERVSRSREKHALLEGRTKELGYTVKKHLQDLSGRISRARHNEL
- decrease of cellular level of intact 125I-Aβ40 (LRP1 inhibition) ([3]; bEnd3, RAP 1 µM pre- and co-incubated, 0.1 nM 125I-Aβ40, 15 min, P<0.001): 67%
- decrease of 125I-Aβ40 degradation (LRP1 inhibition) ([3]; bEnd3, RAP 1 µM, 0.1 nM 125I-Aβ40, 15 min, P<0.01): 24%
- decrease of cellular level of intact 125I-Aβ40 (LRP1 inhibition) ([4]; hCMEC/D3, RAP 1 µM pre- and co-incubated, 0.1 nM 125I-Aβ40, 12 h, P<0.001): 42%
- decrease of 125I-Aβ40 degradation (LRP1 inhibition) ([4]; hCMEC/D3, RAP 1 µM, 0.1 nM 125I-Aβ40, 12 h, P<0.01): 28%
- decrease of intact 125I-Aβ40 transport B→A (LRP1 inhibition) ([5]; bEnd3, RAP 1 µM pre- and co-incubated, 0.1 nM 125I-Aβ40, 30 min, P<0.01): 42%
- decrease of intact 125I-Aβ40 transport B→A (LRP1 inhibition) ([6]; hCMEC/D3, RAP 1 µM pre- and co-incubated, 0.1 nM 125I-Aβ40, 12 h, P<0.01): 42%
